Experimental data from paper PMC7196805.

Biological target: T1, JUNO (mouse (endogenous in mouse oocytes)) (UniProt Q9EQF4)
T1 sequence: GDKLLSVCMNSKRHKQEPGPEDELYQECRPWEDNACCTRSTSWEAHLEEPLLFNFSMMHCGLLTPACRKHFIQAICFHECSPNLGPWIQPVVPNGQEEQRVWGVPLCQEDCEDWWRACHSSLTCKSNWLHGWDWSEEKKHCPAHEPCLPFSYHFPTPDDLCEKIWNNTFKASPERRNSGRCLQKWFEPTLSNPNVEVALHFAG

B1: IZUMO1 (natural protein)
chain: CIKCDQFVTDALKTFENTYLNDHLPHDIHKNVMRMVNHEVSSFGVVTSAEDSYLGAVDENTLEQATWSFLKDLKRITDSDLKGELFIKELLWMLRHQKDIFNNLARQFQKEVLCPNKCGVMSQTLIWCLKCEKQLHICRKSLDCGERHIEVHRSEDLVLDCLLSWHRASKGLTDYSFYRVWENSSETLIAKGKEPYLTKSMVGPEDAGNYRCVLDTINQGHATVIRYDVTVLPPKHSEENQPPNIITQEEHETPVHVTPQTPPGQEPESELYPELHPELYPELIPTVAQNPEKKMKTRLLILLTLGFVVLVASIIISVLHFRKVSAKLKNASDEVKPTASGSKSDQSLSQQMGLKKASQADFNSDYSGDKSEATEN
  cell-oocyte binding assay: IZUMO1-expressing cultured cells bound per ZP-free oocyte (FIMP-expressing cells could not bind) (cells per oocyte): 4
  cell-oocyte binding assay: transfected HEK293T cells coexpressing IZUMO1 and FIMP, bound per oocyte (coexpression of FIMP did not enhance the binding) (cells per oocyte): 4.1
  cell-oocyte binding assay: transfected HEK293T cells expressing IZUMO1 alone, bound per oocyte (cells per oocyte): 4.5
